Data reported in publication PMC5048595.

T1: hPolη (human DNA polymerase eta) (Homo sapiens, UniProt Q9Y253 1-713)
T1 sequence: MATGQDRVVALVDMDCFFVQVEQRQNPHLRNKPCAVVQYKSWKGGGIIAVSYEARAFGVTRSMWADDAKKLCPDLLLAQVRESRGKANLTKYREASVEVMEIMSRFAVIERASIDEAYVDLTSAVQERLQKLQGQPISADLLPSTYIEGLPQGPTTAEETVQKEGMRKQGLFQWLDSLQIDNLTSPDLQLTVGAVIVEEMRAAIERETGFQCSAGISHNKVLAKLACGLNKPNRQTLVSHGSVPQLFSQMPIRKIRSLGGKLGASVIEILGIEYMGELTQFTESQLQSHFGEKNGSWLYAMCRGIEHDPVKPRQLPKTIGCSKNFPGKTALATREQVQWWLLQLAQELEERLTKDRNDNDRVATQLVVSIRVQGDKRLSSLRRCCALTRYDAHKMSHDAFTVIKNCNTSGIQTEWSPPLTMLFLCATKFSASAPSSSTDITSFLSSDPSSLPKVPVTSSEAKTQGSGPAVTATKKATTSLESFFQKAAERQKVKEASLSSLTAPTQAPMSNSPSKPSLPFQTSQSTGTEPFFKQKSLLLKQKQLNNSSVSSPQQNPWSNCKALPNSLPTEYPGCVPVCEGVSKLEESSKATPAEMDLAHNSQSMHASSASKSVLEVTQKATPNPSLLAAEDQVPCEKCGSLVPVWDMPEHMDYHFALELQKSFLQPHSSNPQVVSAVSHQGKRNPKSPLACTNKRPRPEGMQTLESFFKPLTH

B1: 18/26-mer (dsDNA)
DNA 1: AACGACGGCCAGTGAATT
DNA 2: CCCGCGCGAATTCACTGGCCGTCGTT
B2: 21/26-mer (dsDNA)
DNA 1: AACGACGGCCAGTGAATTCGC
DNA 2: CCCGCGCGAATTCACTGGCCGTCGTT
B3: 22/26-mer-dGC8-N-ABA (dsDNA)
DNA 1: AACGACGGCCAGTGAATTCGCG
DNA 2: CCCGCGCGAATTCACTGGCCGTCGTT
modifications: template dG at position 21 from 3' end (6 from 5' end) is N-(2'-deoxyguanosin-8-yl)-3-aminobenzanthrone
B4: 20/26-mer (dsDNA)
DNA 1: AACGACGGCCAGTGAATTCG
DNA 2: CCCGCGCGAATTCACTGGCCGTCGTT
B5: 21/26-mer-dGC8-N-ABA (dsDNA)
DNA 1: AACGACGGCCAGTGAATTCGC
DNA 2: CCCGCGCGAATTCACTGGCCGTCGTT
modifications: template dG at position 21 from 3' end (6 from 5' end) is N-(2'-deoxyguanosin-8-yl)-3-aminobenzanthrone
B6: 22/26-mer (dsDNA)
DNA 1: AACGACGGCCAGTGAATTCGCG
DNA 2: CCCGCGCGAATTCACTGGCCGTCGTT
B7: 19/26-mer-dGC8-N-ABA (dsDNA)
DNA 1: AACGACGGCCAGTGAATTC
DNA 2: CCCGCGCGAATTCACTGGCCGTCGTT
modifications: template dG at position 21 from 3' end (6 from 5' end) is N-(2'-deoxyguanosin-8-yl)-3-aminobenzanthrone
B8: 19/26-mer (dsDNA)
DNA 1: AACGACGGCCAGTGAATTC
DNA 2: CCCGCGCGAATTCACTGGCCGTCGTT
B9: 18/26-mer-dGC8-N-ABA (dsDNA)
DNA 1: AACGACGGCCAGTGAATT
DNA 2: CCCGCGCGAATTCACTGGCCGTCGTT
modifications: template dG at position 21 from 3' end (6 from 5' end) is N-(2'-deoxyguanosin-8-yl)-3-aminobenzanthrone
B10: 20/26-mer-dGC8-N-ABA (dsDNA)
DNA 1: AACGACGGCCAGTGAATTCG
DNA 2: CCCGCGCGAATTCACTGGCCGTCGTT
modifications: template dG at position 21 from 3' end (6 from 5' end) is N-(2'-deoxyguanosin-8-yl)-3-aminobenzanthrone

Each binder was assayed against T1, hPolη (human DNA polymerase eta) (assay: EMSA).
B1 gave a Kd of 28 ± 3 nM.
B2 showed a Kd of 26 ± 1 nM.
B3 gave a Kd of 24 ± 4 nM.
B4 showed a Kd of 23 ± 2 nM.
Binder B5 has a Kd of 26 ± 7 nM.
B6 gave a Kd of 17 ± 6 nM.
With B7 the Kd was 12 ± 2 nM.
Binder B8 has a Kd of 25 ± 5 nM.
With B9 the Kd was 32 ± 5 nM.
B10 showed a Kd of 12 ± 2 nM.
